Key:
AncSZ = test: phosphorylation enrichment, bacterial display (enrichment ratio); higher = better substrate or ligand; peptides without Tyr show the background
FGFR1 = FGFR1 (UniProt P11362); test: as above
c-Abl (mouse) = test: as above
FGFR3 = FGFR3 (UniProt P22607); test: as above
Fer (mouse) = test: as above
Fyn = Fyn (UniProt P06241); test: as above
Jak2 = Jak2 (UniProt O60674); test: as above
Hck = Hck (UniProt P08631); test: as above
EPHB2 = EPHB2 (UniProt P29323); test: as above
MERTK = MERTK (UniProt Q12866); test: as above
Sequence of MERTK (Q12866 whole entry, looked up): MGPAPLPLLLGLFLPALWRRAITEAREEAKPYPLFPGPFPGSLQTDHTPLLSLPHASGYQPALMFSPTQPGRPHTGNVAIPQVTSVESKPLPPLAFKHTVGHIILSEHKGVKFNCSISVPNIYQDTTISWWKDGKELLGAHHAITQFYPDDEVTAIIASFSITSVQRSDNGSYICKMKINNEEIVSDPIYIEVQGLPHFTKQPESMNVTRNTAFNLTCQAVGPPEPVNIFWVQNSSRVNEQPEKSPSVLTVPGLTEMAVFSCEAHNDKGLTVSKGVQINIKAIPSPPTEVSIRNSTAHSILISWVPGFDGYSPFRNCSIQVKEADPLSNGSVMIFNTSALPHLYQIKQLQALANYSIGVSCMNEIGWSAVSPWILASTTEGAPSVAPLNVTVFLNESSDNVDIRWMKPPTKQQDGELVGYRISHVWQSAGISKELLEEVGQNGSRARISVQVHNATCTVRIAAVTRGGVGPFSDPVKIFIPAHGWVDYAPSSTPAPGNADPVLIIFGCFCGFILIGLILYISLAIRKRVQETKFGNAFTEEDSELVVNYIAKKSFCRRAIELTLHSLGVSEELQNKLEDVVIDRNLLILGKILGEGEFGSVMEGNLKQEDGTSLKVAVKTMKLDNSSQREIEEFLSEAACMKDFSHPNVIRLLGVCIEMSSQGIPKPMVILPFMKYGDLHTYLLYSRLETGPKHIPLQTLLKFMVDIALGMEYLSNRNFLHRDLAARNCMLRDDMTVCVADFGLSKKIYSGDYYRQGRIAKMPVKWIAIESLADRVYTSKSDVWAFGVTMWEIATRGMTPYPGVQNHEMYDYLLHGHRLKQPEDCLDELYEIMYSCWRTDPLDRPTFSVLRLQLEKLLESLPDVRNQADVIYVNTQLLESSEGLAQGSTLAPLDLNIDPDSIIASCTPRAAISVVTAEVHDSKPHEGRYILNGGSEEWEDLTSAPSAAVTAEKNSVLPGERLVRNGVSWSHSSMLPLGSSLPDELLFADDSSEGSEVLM

EPHB1 = EPHB1 (UniProt P54762); test: as above
Fes = Fes (UniProt P07332); test: as above
Sequence of Fes (P07332 whole entry, looked up): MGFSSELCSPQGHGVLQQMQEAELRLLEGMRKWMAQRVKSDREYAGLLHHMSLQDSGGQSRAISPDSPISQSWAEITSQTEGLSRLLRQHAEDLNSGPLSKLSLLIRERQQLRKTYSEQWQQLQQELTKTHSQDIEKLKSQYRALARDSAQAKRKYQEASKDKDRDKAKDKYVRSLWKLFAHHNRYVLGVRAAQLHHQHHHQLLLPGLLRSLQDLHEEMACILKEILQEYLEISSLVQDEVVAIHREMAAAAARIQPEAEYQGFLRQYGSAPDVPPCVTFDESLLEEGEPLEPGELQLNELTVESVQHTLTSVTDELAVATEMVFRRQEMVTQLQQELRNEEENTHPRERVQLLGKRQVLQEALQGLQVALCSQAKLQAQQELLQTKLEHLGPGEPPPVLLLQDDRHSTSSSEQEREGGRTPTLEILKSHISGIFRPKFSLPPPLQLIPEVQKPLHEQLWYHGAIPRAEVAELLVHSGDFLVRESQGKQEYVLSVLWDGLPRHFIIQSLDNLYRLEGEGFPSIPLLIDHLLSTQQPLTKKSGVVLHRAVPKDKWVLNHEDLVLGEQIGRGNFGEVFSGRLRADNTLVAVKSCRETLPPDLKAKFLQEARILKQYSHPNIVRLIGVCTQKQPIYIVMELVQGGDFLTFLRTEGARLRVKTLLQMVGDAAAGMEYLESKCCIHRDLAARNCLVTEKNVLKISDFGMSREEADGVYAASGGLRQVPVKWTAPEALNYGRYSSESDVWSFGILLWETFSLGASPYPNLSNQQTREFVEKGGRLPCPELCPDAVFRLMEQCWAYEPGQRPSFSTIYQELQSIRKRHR

c-Src = test: as above
SHP2-C SH2 = test: SH2 binding enrichment of the phosphorylated peptide, bacterial display (enrichment ratio); higher = better substrate or ligand; peptides without Tyr show the background
c-Src SH2 = test: as above
Grb2 SH2 = Grb2 SH2 (UniProt P62993); test: as above
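Wherever SH2 binding enrichment of the phosphorylated peptide, bacterial display is given: peptide library displayed on the E. coli surface as eCPX fusions, selected cells deep-sequenced, score is each peptide's frequency after selection divided by its frequency in the input.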
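Wherever phosphorylation enrichment, bacterial display is given: 11-residue human phosphosite peptides and single-mutation variants displayed on the E. coli surface, counted by deep sequencing, each peptide's frequency after selection divided by its frequency in the unselected input library; frequency after pTyr selection over input frequency; kinase dosed for 20-30% of maximal phosphorylation in three min.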

Sequence of FGFR3 (P22607 whole entry, looked up): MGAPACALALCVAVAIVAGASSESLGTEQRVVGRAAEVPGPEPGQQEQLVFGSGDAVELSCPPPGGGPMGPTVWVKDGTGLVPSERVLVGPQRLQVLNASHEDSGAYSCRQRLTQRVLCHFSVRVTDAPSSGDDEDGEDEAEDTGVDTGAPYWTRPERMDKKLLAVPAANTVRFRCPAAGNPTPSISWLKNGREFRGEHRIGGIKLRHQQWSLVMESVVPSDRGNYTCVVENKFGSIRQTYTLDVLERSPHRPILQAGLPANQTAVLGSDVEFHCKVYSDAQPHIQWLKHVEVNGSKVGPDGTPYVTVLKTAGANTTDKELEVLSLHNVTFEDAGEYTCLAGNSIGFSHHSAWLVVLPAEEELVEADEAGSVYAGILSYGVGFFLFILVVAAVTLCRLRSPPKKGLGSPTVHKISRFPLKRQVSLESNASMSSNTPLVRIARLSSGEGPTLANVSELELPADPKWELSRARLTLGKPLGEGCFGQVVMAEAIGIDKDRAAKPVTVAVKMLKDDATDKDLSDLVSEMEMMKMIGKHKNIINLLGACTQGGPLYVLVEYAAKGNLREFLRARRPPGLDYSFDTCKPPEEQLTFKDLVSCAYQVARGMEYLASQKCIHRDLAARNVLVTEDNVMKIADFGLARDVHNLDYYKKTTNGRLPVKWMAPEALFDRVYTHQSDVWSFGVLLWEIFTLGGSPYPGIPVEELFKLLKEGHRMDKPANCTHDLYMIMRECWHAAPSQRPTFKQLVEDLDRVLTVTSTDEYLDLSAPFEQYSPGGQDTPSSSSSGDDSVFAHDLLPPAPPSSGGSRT
Sequence of Fyn (P06241 whole entry, looked up): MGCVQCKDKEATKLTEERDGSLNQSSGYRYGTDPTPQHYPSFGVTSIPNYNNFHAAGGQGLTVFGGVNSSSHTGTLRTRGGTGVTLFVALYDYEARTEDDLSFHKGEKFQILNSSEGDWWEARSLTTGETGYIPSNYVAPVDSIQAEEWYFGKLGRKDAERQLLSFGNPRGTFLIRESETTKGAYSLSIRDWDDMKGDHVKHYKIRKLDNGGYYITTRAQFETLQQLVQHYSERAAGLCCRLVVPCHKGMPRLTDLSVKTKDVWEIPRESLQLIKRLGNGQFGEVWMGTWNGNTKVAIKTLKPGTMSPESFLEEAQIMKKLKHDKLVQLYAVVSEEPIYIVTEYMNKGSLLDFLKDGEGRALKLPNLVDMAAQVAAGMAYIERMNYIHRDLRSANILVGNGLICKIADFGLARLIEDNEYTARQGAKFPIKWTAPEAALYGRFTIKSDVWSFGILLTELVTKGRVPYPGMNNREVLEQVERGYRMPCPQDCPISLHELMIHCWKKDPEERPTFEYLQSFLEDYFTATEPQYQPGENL
Sequence of FGFR1 (P11362 whole entry, looked up): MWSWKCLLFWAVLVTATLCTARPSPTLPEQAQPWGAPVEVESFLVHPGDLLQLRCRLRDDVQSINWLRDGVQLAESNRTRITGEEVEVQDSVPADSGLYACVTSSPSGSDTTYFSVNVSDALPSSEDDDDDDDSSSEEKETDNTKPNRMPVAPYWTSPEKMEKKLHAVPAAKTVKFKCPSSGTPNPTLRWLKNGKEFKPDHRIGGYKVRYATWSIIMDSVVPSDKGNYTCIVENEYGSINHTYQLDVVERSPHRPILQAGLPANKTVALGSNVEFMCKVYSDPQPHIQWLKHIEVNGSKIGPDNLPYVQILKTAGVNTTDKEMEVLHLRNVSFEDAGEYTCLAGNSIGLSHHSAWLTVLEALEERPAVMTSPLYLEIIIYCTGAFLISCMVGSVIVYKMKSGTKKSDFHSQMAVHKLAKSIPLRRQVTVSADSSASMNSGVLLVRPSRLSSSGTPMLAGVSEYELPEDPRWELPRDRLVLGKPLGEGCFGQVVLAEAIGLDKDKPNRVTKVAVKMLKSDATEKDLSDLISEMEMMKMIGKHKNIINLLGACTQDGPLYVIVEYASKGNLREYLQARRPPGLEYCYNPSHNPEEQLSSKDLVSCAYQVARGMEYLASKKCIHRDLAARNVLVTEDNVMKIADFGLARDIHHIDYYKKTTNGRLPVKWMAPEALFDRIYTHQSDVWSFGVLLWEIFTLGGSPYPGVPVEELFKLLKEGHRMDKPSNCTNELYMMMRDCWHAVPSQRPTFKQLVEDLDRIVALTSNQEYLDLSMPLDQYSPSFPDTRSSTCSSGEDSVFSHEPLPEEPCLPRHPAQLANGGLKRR
Sequence of Hck (P08631 whole entry, looked up): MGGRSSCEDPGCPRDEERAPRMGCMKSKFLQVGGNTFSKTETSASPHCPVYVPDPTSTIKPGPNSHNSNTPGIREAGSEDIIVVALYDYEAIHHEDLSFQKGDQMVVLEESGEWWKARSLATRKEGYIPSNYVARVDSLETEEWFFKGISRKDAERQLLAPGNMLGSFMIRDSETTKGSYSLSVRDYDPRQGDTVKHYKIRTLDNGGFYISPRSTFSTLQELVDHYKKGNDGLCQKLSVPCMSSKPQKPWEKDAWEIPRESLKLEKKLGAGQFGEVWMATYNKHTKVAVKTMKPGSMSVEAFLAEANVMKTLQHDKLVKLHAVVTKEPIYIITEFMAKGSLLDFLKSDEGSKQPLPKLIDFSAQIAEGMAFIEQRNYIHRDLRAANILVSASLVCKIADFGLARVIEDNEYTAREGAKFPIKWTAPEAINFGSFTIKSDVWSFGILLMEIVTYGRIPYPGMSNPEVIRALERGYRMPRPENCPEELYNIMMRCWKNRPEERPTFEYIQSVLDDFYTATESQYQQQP

Row | SH2 binding enrichment (SHP2-C SH2) | SH2 binding enrichment (c-Src SH2) | SH2 binding enrichment (Grb2 SH2) | Sequence | phosphorylation enrichment (AncSZ) | phosphorylation enrichment (FGFR1) | phosphorylation enrichment (c-Abl (mouse)) | phosphorylation enrichment (FGFR3) | phosphorylation enrichment (Fer (mouse)) | phosphorylation enrichment (Fyn) | phosphorylation enrichment (Jak2) | phosphorylation enrichment (Hck) | phosphorylation enrichment (EPHB2) | phosphorylation enrichment (MERTK) | phosphorylation enrichment (EPHB1) | phosphorylation enrichment (Fes) | phosphorylation enrichment (c-Src)
1 | 0.723 | 0.544 | 1.05 | AFPGEYIPTVF [RAC1_Y32] | 0.776 | 0.618 | 0.689 | 0.617 | 0.509 | 0.381 | 0.924 | 0.492 | 0.476 | 0.474 | 0.444 | 0.828 | 0.476
2 | 0.614 | 0.606 | 0.832 | AFRHGYFDEEM [PLEC_Y2971_R2969H_YF] | 1.13 | 0.554 | 0.806 | 0.676 | 0.593 | 0.487 | 1.3 | 0.456 | 0.59 | 0.478 | 0.498 | 1.12 | 0.412
3 | 0.819 | 0.586 | 0.688 | AGAKTYKMSMA [CPS1_Y309] | 0.389 | 0.309 | 0.383 | 0.426 | 0.406 | 0.402 | 0.527 | 0.374 | 0.264 | 0.364 | 0.328 | 0.405 | 0.399
4 | 0.945 | 0.548 | 1.07 | AGQEDCDRLRP [CDC42_Y64_Y64C] | 0.784 | 0.476 | 0.609 | 0.586 | 0.439 | 0.436 | 0.682 | 0.424 | 0.444 | 0.364 | 0.552 | 0.882 | 0.427
5 | 0.639 | 0.496 | 0.703 | AGQEKYSAMRD [HRAS_Y64_E63K] | 0.574 | 0.324 | 0.604 | 0.498 | 0.37 | 0.427 | 0.618 | 0.423 | 0.424 | 0.312 | 0.318 | 0.837 | 0.416
6 | 0.386 | 0.399 | 0.577 | AHEALYLEADL [CENPF_Y1920_E1915A] | 1.82 | 2.2 | 1.09 | 2.09 | 1.12 | 0.692 | 1.05 | 0.736 | 0.802 | 1.03 | 0.781 | 1.29 | 0.855
7 | 0.518 | 5.11 | 0.932 | AIFEGYALPHA [ACTC1_Y171_P166A_YF] | 0.732 | 0.549 | 1.2 | 0.535 | 0.605 | 0.472 | 0.539 | 0.43 | 0.401 | 0.726 | 0.452 | 0.801 | 0.414
8 | 0.936 | 0.625 | 1.02 | AKIDGYITSFR | 0.795 | 0.513 | 0.573 | 0.573 | 0.468 | 0.439 | 0.535 | 0.381 | 0.411 | 0.468 | 0.427 | 0.957 | 0.407
9 | 0.493 | 0.533 | 0.728 | AKRKGYDMQVD [NEB_Y2770_R2773Q] | 0.473 | 0.311 | 0.372 | 0.315 | 0.328 | 0.327 | 0.377 | 0.363 | 0.366 | 0.301 | 0.257 | 0.395 | 0.404

Source: the supplement of paper PMC10065799, “High-throughput profiling of sequence recognition by tyrosine kinases and SH2 domains using bacterial peptide display” (eLife, 2023)
